Molecular target: S2H14 (variable region fused with the constant region of IgG1)
Experiment: SPR

SARS-CoV-2 receptor binding domain (RBD), His-tagged (from UniProt P0DTC2 319-541) (domain or fragment)
Kd: 4.12 nM
